{"source": "paper PMC2756588"}
{"target": "T1, Cyk3, Q07533", "T1 sequence (Q07533 1-83, looked up)": "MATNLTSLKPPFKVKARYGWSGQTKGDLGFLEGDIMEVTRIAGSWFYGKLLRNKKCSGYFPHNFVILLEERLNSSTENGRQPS", "experiment": "SPOT array", "conditions": "median of control spots 1451"}
{"binder": "ATKSASPTLPTRRSR", "SPOT intensity": 1}
{"binder": "SKIRPTPRKPSRMAT", "SPOT intensity": 6}
{"binder": "TSFKGRPKPPKTLKH", "SPOT intensity": 2}
{"target": "T2, Boi1, P38041", "T2 sequence (P38041 1-86, looked up)": "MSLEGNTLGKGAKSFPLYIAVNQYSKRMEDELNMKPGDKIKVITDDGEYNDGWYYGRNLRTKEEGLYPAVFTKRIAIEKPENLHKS", "experiment": "SPOT array", "conditions": "median of control spots 1162"}
{"binder": "ATKSASPTLPTRRSR", "SPOT intensity": 3}
{"binder": "SKIRPTPRKPSRMAT", "SPOT intensity": 4}
{"binder": "TSFKGRPKPPKTLKH", "SPOT intensity": 1}
{"target": "T3, Sla1-3, P32790", "T3 sequence (P32790 344-424, looked up)": "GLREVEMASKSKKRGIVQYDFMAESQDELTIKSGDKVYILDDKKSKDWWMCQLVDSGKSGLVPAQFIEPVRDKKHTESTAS", "experiment": "SPOT array", "conditions": "median of control spots 5475"}
{"binder": "ATKSASPTLPTRRSR", "SPOT intensity": 1}
{"binder": "SKIRPTPRKPSRMAT", "SPOT intensity": 21}
{"binder": "TSFKGRPKPPKTLKH", "SPOT intensity": 2}
{"target": "Bem1-2, P29366", "sequence (P29366 139-227)": "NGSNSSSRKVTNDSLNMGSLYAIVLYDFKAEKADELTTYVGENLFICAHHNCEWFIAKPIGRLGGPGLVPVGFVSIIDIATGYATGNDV", "experiment": "SPOT array", "conditions": "median of control spots 4347"}
{"binder": "ATKSASPTLPTRRSR", "SPOT intensity": 18}
{"binder": "SKIRPTPRKPSRMAT", "SPOT intensity": 50}
{"binder": "TSFKGRPKPPKTLKH", "SPOT intensity": 0}
{"target": "T4, Cdc25, P04821", "T4 sequence (P04821 50-136, looked up)": "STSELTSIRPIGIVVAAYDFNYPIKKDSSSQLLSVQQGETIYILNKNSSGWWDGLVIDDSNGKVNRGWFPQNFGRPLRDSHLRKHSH", "experiment": "SPOT array", "conditions": "median of control spots 969"}
{"binder": "ATKSASPTLPTRRSR", "SPOT intensity": 22}
{"binder": "SKIRPTPRKPSRMAT", "SPOT intensity": 35}
{"binder": "TSFKGRPKPPKTLKH", "SPOT intensity": 2}
{"target": "T5, Bud14, P27637", "T5 sequence (P27637 247-328, looked up)": "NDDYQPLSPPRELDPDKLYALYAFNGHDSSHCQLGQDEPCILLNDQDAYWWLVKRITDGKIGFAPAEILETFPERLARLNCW", "experiment": "SPOT array", "conditions": "median of control spots 956"}
{"binder": "ATKSASPTLPTRRSR", "SPOT intensity": 8}
{"binder": "SKIRPTPRKPSRMAT", "SPOT intensity": 13}
{"binder": "TSFKGRPKPPKTLKH", "SPOT intensity": 1}
{"target": "Rvs167, P39743", "sequence (P39743 419-482)": "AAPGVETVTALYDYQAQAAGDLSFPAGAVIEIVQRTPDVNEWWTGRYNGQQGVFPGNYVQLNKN", "experiment": "SPOT array", "conditions": "median of control spots 2707"}
{"binder": "ATKSASPTLPTRRSR", "SPOT intensity": 1540}
{"binder": "SKIRPTPRKPSRMAT", "SPOT intensity": 148}
{"binder": "TSFKGRPKPPKTLKH", "SPOT intensity": 0}
{"target": "T6, Bbc1, P47068", "T6 sequence (P47068 1-78, looked up)": "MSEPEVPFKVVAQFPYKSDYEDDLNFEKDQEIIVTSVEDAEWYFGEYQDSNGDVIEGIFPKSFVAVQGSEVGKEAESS", "experiment": "SPOT array", "conditions": "median of control spots 796"}
{"binder": "ATKSASPTLPTRRSR", "SPOT intensity": 79}
{"binder": "SKIRPTPRKPSRMAT", "SPOT intensity": 37}
{"binder": "TSFKGRPKPPKTLKH", "SPOT intensity": 5}
{"target": "T7, Nbp2, Q12163", "T7 sequence (Q12163 103-180, looked up)": "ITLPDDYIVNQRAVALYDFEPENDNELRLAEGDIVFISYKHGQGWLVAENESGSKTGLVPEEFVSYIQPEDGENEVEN", "experiment": "SPOT array", "conditions": "median of control spots 357"}
{"binder": "ATKSASPTLPTRRSR", "SPOT intensity": 2}
{"binder": "SKIRPTPRKPSRMAT", "SPOT intensity": 44}
{"binder": "TSFKGRPKPPKTLKH", "SPOT intensity": 0}
{"target": "Sho1, P40073", "sequence (P40073 287-367)": "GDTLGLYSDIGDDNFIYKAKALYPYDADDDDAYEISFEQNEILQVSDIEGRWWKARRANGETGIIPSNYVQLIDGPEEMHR", "experiment": "SPOT array", "conditions": "median of control spots 1148"}
{"binder": "ATKSASPTLPTRRSR", "SPOT intensity": 132}
{"binder": "SKIRPTPRKPSRMAT", "SPOT intensity": 177}
{"binder": "TSFKGRPKPPKTLKH", "SPOT intensity": 43}
{"target": "T8, Pex13, P80667", "T8 sequence (P80667 295-386, looked up)": "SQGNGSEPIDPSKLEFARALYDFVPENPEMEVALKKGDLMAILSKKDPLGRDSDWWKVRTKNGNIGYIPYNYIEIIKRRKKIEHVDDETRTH", "experiment": "SPOT array", "conditions": "median of control spots 1341"}
{"binder": "ATKSASPTLPTRRSR", "SPOT intensity": 249}
{"binder": "SKIRPTPRKPSRMAT", "SPOT intensity": 40}
{"binder": "TSFKGRPKPPKTLKH", "SPOT intensity": 3}
{"target": "T9, Boi2, P39969", "T9 sequence (P39969 32-116, looked up)": "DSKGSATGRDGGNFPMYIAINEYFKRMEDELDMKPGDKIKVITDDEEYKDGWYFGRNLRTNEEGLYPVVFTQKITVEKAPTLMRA", "experiment": "SPOT array", "conditions": "median of control spots 1161"}
{"binder": "ATKSASPTLPTRRSR", "SPOT intensity": 0}
{"binder": "SKIRPTPRKPSRMAT", "SPOT intensity": 3}
{"binder": "TSFKGRPKPPKTLKH", "SPOT intensity": 0}
{"target": "T10, Pin3, Q06449", "T10 sequence (Q06449 53-122, looked up)": "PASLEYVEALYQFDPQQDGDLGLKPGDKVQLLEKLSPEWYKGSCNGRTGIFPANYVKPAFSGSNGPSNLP", "experiment": "SPOT array", "conditions": "median of control spots 2171"}
{"binder": "ATKSASPTLPTRRSR", "SPOT intensity": 20}
{"binder": "SKIRPTPRKPSRMAT", "SPOT intensity": 20}
{"binder": "TSFKGRPKPPKTLKH", "SPOT intensity": 4}
{"target": "T11, Hof1, Q05080", "T11 sequence (Q05080 590-669, looked up)": "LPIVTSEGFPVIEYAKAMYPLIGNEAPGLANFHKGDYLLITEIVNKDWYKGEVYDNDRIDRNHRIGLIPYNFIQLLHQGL", "experiment": "SPOT array", "conditions": "median of control spots 4086"}
{"binder": "ATKSASPTLPTRRSR", "SPOT intensity": 0}
{"binder": "SKIRPTPRKPSRMAT", "SPOT intensity": 8}
{"binder": "TSFKGRPKPPKTLKH", "SPOT intensity": 1}
{"target": "Bem1-1, P29366", "sequence (P29366 55-141)": "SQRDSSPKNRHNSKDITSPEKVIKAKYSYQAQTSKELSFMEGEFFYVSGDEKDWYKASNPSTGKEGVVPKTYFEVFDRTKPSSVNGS", "experiment": "SPOT array", "conditions": "median of control spots 4282"}
{"binder": "ATKSASPTLPTRRSR", "SPOT intensity": 3}
{"binder": "SKIRPTPRKPSRMAT", "SPOT intensity": 6}
{"binder": "TSFKGRPKPPKTLKH", "SPOT intensity": 0}
{"target": "T12, Lsb1, P53281", "T12 sequence (P53281 45-122, looked up)": "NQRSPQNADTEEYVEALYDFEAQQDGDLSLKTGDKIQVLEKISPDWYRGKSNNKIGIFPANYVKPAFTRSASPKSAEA", "experiment": "SPOT array", "conditions": "median of control spots 388"}
{"binder": "ATKSASPTLPTRRSR", "SPOT intensity": 56}
{"binder": "SKIRPTPRKPSRMAT", "SPOT intensity": 10}
{"binder": "TSFKGRPKPPKTLKH", "SPOT intensity": 0}
{"target": "T13, Lsb4, P32793", "T13 sequence (P32793 402-468, looked up)": "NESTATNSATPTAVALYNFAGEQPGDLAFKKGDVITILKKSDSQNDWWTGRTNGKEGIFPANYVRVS", "experiment": "SPOT array", "conditions": "median of control spots 397"}
{"binder": "ATKSASPTLPTRRSR", "SPOT intensity": 1180}
{"binder": "SKIRPTPRKPSRMAT", "SPOT intensity": 162}
{"binder": "TSFKGRPKPPKTLKH", "SPOT intensity": 0}
{"target": "T14, Lsb3, P43603", "T14 sequence (P43603 385-451, looked up)": "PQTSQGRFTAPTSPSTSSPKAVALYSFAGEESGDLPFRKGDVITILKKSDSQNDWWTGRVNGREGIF", "experiment": "SPOT array", "conditions": "median of control spots 406"}
{"binder": "ATKSASPTLPTRRSR", "SPOT intensity": 834}
{"binder": "SKIRPTPRKPSRMAT", "SPOT intensity": 124}
{"binder": "TSFKGRPKPPKTLKH", "SPOT intensity": 0}
{"target": "T15, Sla1-2, P32790", "T15 sequence (P32790 60-140, looked up)": "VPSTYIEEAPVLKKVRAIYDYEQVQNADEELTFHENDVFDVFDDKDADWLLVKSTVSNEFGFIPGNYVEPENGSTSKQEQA", "experiment": "SPOT array", "conditions": "median of control spots 712"}
{"binder": "ATKSASPTLPTRRSR", "SPOT intensity": 8}
{"binder": "SKIRPTPRKPSRMAT", "SPOT intensity": 21}
{"binder": "TSFKGRPKPPKTLKH", "SPOT intensity": 0}
{"target": "T16, Bzz1-1, P38822", "T16 sequence (P38822 478-572, looked up)": "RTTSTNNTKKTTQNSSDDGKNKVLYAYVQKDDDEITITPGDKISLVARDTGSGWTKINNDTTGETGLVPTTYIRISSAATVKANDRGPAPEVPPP", "experiment": "SPOT array", "conditions": "median of control spots 4446"}
{"binder": "ATKSASPTLPTRRSR", "SPOT intensity": 3}
{"binder": "SKIRPTPRKPSRMAT", "SPOT intensity": 6}
{"binder": "TSFKGRPKPPKTLKH", "SPOT intensity": 0}
{"target": "T17, Abp1, P15891", "T17 sequence (P15891 535-592, looked up)": "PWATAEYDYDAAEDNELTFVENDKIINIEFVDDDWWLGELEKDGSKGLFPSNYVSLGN", "experiment": "SPOT array", "conditions": "median of control spots 935"}
{"binder": "ATKSASPTLPTRRSR", "SPOT intensity": 182}
{"binder": "SKIRPTPRKPSRMAT", "SPOT intensity": 345}
{"binder": "TSFKGRPKPPKTLKH", "SPOT intensity": 128}
{"target": "Myo3, P36006", "experiment": "SPOT array", "conditions": "median of control spots 468"}
{"binder": "ATKSASPTLPTRRSR", "SPOT intensity": 12}
{"binder": "SKIRPTPRKPSRMAT", "SPOT intensity": 50}
{"binder": "TSFKGRPKPPKTLKH", "SPOT intensity": 0}
{"target": "GST", "experiment": "SPOT array", "conditions": "median of control spots 978"}
{"binder": "ATKSASPTLPTRRSR", "SPOT intensity": 1}
{"binder": "SKIRPTPRKPSRMAT", "SPOT intensity": 2}
{"binder": "TSFKGRPKPPKTLKH", "SPOT intensity": 0}
{"target": "T18, Bzz1-2, P38822", "T18 sequence (P38822 568-633, looked up)": "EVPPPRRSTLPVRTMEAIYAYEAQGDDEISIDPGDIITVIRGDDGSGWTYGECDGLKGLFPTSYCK", "experiment": "SPOT array", "conditions": "median of control spots 4538"}
{"binder": "ATKSASPTLPTRRSR", "SPOT intensity": 1}
{"binder": "SKIRPTPRKPSRMAT", "SPOT intensity": 16}
{"binder": "TSFKGRPKPPKTLKH", "SPOT intensity": 11}
{"target": "T19, Myo5, Q04439", "T19 sequence (Q04439 1072-1160, looked up)": "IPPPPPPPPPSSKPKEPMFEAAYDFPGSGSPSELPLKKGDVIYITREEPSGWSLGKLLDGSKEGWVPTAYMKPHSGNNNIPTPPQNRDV", "experiment": "SPOT array", "conditions": "median of control spots 471"}
{"binder": "ATKSASPTLPTRRSR", "SPOT intensity": 0}
{"binder": "SKIRPTPRKPSRMAT", "SPOT intensity": 23}
{"binder": "TSFKGRPKPPKTLKH", "SPOT intensity": 0}
{"target": "T20, Fus1, P11710", "T20 sequence (P11710 432-512, looked up)": "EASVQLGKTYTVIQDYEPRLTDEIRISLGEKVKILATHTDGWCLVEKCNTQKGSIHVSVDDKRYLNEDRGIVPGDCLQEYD", "experiment": "SPOT array", "conditions": "median of control spots 1200"}
{"binder": "ATKSASPTLPTRRSR", "SPOT intensity": 2}
{"binder": "SKIRPTPRKPSRMAT", "SPOT intensity": 12}
{"binder": "TSFKGRPKPPKTLKH", "SPOT intensity": 1}
{"target": "T21, Hse1, P38753", "T21 sequence (P38753 208-285, looked up)": "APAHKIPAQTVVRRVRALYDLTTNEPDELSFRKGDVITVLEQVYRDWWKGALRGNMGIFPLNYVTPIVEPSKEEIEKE", "experiment": "SPOT array", "conditions": "median of control spots 1727"}
{"binder": "ATKSASPTLPTRRSR", "SPOT intensity": 2}
{"binder": "SKIRPTPRKPSRMAT", "SPOT intensity": 19}
{"binder": "TSFKGRPKPPKTLKH", "SPOT intensity": 2}
